The record followed here is publication PMC12284214, “Structural basis for the activity regulation of Medicago calcium channel CNGC15” (Cell Discovery, 2025).

The series deals with the molecule itself. Put plainly: cryo-EM structure; MtCNGC15b alone, in 25 mM Tris pH 8.0, 150 mM NaCl, 0.006% GDN; 3.1 Å; also with 5 mM cGMP (no structural change).

B1: Medicago truncatula CNGC15b (natural protein, M. truncatula, UniProt G7JND3 1-620, looked up)
chain: MVTPKFMSDLFEGDHLELAKLTSPNGDNGIKFNEKHVAPRVLSRVFSEDYKRVKRRRRIFDPRGQTIHQWNKIFLVACLISLFVDPLFFYLPIVQDEVCIDIGIAVEVFLIIIRSIADVFYVIHIFMRFHTAYVAPSSRVFGRGELVIDSSKIASRYLHKGFFLDFIAALPLPQVLIWIVIPNLGGSTIANTKNVLRFIIIIQYLPRLFLIFPLSSQIVKATGVVTETAWAGAAYNLMLYMLASHVLGACWYLLSIERQEACWKSVCKLEESSCQFDFFDCNMVKDSLRVSWFVTSNVTNLCSPNSLFYQFGIYGDAVTSKVTTSAFFNKYFFCLWWGLRNLSSLGQGLLTSTFVGEIMFAIVIATLGLVLFALLIGNMQTYLQSTTVRLEEWRVKRTDTEQWMHHRQLPQELRQSVRKYDQYKWIATRGVDEESLLRGLPLDLRRDIKRHLCLELVRRVPLFDAMDERMLDAICERLKPALCTENTYLVREGDPVNEMLFIIRGNLDSYTTDGGRTGFFNSCRIGPGDFCGEELLTWALDPRPTMVIPSSTRTVKAISEVEAFALIAEDLKFVASQFRRLHSKQLRNKLRFHSHQWRTWAACFIQVAWRRTIQEKKGSC
notes: residues 58-385 were modelled in the apo map; In the functional rows the protein was made from cRNA in Xenopus oocytes with that signal peptide; also called MtCNGC15b; MtCNGC15; source: HEK293F, transfected; purified (anti-Flag M2, Strep-Tactin, SEC) in GDN; not shown: Flag, C-terminal, kept; TwinStrep, C-terminal, kept
On to B1, for which the binding result is “binds”.
